In the DeepSol protein solubility set:

Assay: soluble on expression in E. coli; label from the status in PepcDB or PDB records

Sequence | soluble on expression in E. coli
MGHHHHHHHHHHSSGHIEGRHMGKNVLLLGSGFVAQPVIDTLAANDDINVTVACRTLANAQALAKPSGSKAISLDVTDDSALDKVLADNDVVISLIPYTFHPNVVKSAIRTKTDVVTSSYISPALRELEPEIVKAGITVMNEIGLDPGIDHLYAVKTIDEVHRAGGKLKSFLSYCGGLPAPEDSDNPLGYKFSWSSRGVLLALRNSAKYWKDGKIETVSSEDLMATAKPYFIYPGYAFVCYPNRDSTLFKDLYHIPEAETVIRGTLRYQGFPEFVKALVDMGMLKDDANEIFSKPIAWNEALKQYLGAKSTSKEDLIASIDSKATWKDDEDRERILSGFAWLGLFSDAKITPRGNALDTLCARLEELMQYEDNERDMVVLQHKFGIEWADGTTETRTSTLVDYGKVGGYSSMAATVGYPVAIATKFVLDGTIKGPGLLAPYSPEINDPIMKELKDKYGIYLKEKTVA | soluble
MGHHHHHHHHHHSSGHIEGRHMYTVMLDLKGRSVLVVGGGTIATRRIKGFLQEGAAITVVAPTVSAEINEWEAKGQLRVKRKKVGEEDLLNVFFIVVATNDQAVNKFVKQHIKNDQLVNMASSFSDGNIQIPAQFSRGRLSLAISTDGASPLLTKRIKEDLSSNYDESYTQYTQFLYECRVLIHRLNVSKSRKHELLTEIIDDQYRLSLVKQREFLQQIEKYK | soluble
MGHHHHHHKVTLPDLKWDFGALEPYISGQINELHYTKHHQTYVNGFNTAVDQFQELSDLLAKEPSPANARKMIAIQQNIKFHGGGFTNHCLFWENLAPESQGGGEPPTGALAKAIDEQFGSLDELIKLTNTKLAGVQGSGWAFIVKNLSNGGKLDVVQTYNQDTVTGPLVPLVAIDAWEHAYYLQYQNKKADYFKAIWNVVNWKEASRRFDAGKI | soluble
MGHHHHHHSHAADEEKAARGIAADRLIIGHVARFHEVKNHAFLLKLAAHLKERGIRFQLVLAGDGPLCGEIEEEARQQNLLSDVLFLGTEERIHELMRTFDVFVMPSLYEGLPVVLVEAQASGLPCIISDSITEKVDAGLGLVTRLSLSEPISVWAETIARAAAAGRPKREFIKETLAQ | soluble
MGHHHHHHSHAKGKSAGLVKATGRNMEQFQVSVSVAPNAKITFELVYEELLKRRLGVYELLLKVRPQQLVKHLQMDIHIFEPQGISFLETESTFMTNQLVDALTTWQNKTKAHIRFKPTLSQQQKSPEQQETVLDGNLIIRYDVDRAISGGSIQIENGYFVHYFAPEGLTTMPKNVVFVIDKSGSMSGRKIQQTREALIKILDDLSPRDQFNLIVFSTEATQWRPSLVPASAENVNKARSFAAGIQALGGTNINDAMLMAVQLLDSSNQEERLPEGSVSLIILLTDGDPTVGETNPR | not soluble
MGHHHHHHSHALKRLEVEVELFNQPSEELENFDFIVSVGGDGTILRILQKLKRCPPIFGINTGRVGLLTHASPENFEVELKKAVEKFEVERFPRVSCSAMPDVLALNEIAVLSRKPAKMIDVALRVDGVEVDRIRCDGFIVATQIGSTGYAFSAGGPVVEPYLECFILIPIAPFRFGWKPYVVSMERKIEVIAEKAIVVADGQKSVDFDGEITIEKSEFPAVFFKNEKRFRNL | not soluble
MGHHHHHHSHEELGLKVGLEIHRQLDTKKLFSPVPTKFSDEVDFTFQRRLRPTMSELGEVDPAALEEFKKGRVFIYEGNYQLTDLVYMDEEPPRGPDKEALEVALQIAYLLNAKPVDEVYYMRKIVIDGSNVSGFQRTAIIATDGKVETPWGTVGIPTICLEEDAARIIERKEKEVIYRLDRLGVPLVEISTTPDIHHPEQAKVVAKFIGDALRATRKVKRGLGTIRQDLNVSIKGGARIEIKGVQELDMIPLIIEREVERQLNLLKIR | not soluble
MGHHHHHHSHEVFKNAQPPIRDATDLRENMQNAVVSFKELCGLSSVANLMQCMLAVSPRFLGPDNTPLVVLNLSEQYPTMELQGIVPEVLKKIVTTYDMMIQSLKALIENADAVYEKIVHCQKAAMEFHEHLHSIGTKEGLKERKLQKAVESFTWNITILKGQADLLKYAKNETLENLKQIHFAAVSCGLNKPGTENADVQKPRRSLEVIPEKANDETGE | not soluble
MGHHHHHHSHGATLIRDRLKTEPFEENSFLEQFMIEKLPEACSIGDGKPFVMNLQDLYMAVTTQEVQVGQKHQGAGDPHTSNSASLQGIDSQCVNQPEQLVSSAPTLSAPEKESTALCRDLSCQRSRGRSQGVSSVNLLWPQLLRMDLENSFQASP | not soluble
MGHHHHHHSHGGSRTGPVSLQGDPKQAPWSSSQSNSSRKTLFLSLCPPFPTQPQIHLHFTEHRASSHQGGPFKLQICLSSLYSNLLLHCHYREVHHMSGHRTESAGGHLFLPQDLRWKSPGLGVFAVQSVYELARRHNVSPFYSGPP | not soluble
MGHHHHHHSHGGVGKKEQLSVKKLRVVLFALCCNTEQAAEHFRNPQRRIRRWLRRFQASQGENLEGKYLSFEAEEKLAEWVLTQREQQLPVNEETLFQKATKIGRSLEGGFKISYEWAVRFMLRH | not soluble
MGHHHHHHSHGTRVTLRFQMKMFESADSTATRSGQDLWAEICSCLPNPEQEDGANNAFSDSFVDSCPEGEGQREVADFAVQPAVKPWAPLQDSEVYLASLEKKLRRIKGLNQEVTSKDMLRTLAQAKKECWDRFLQEKLASEFFVDGLDSDESTLEHFKRWLQPDKVAVSTEEVQYLIPPESQVEKPVAEDEPAAGDKPAAAEQ | soluble
MGHHHHHHSHIKPGEEVFTSYIDLLYPTEDRNDRLRDSYFFTCECQECTTKDKDKAKVEIRKLSDPPKAEAIRDMVRYARNVIEEFRRAKHYKSPSELLEICELSQEKMSSVFEDSNVYMLHMMYQAMGVCLYMQDWEGALQYGQKIIKPYSKHYPLYSLNVASMWLKLGRLYMGLEHKAAGEKALKKAIAIMEVAHGKDHPYISEIKQEIESH | not soluble
MGHHHHHHSHLGHSTMYMWAMGDREVFIELAEALTGARLTHSYPIPGGARRDIPADFPDMARRAVRYMRKRLDEYAKIFLNNPVIRSRLEGVGVIPKKAAAEMGIVGPNARGSGIDYDVRLVHPYDAYPEIDFEVPVFEEGDALARTYVRVEEIKQSLRIIEQAVEWLEKHPREPIVDKYLYGKYPPLHKKVLEAEGRAKLLPTVAAMKVPPGRAIGRAETGRGETVYYVESDGGVNPYRVRIVTASARNVIAFKYVLPGHRVMDIPAIYGSLDYFPPEADR | not soluble
MGHHHHHHSHLKHKMMNYMKDFRMIEDSENPEIVISVGGDGTLLQAFHQYSHMLSKVAFVGVHTGHLGFYADWLPHEVEKLIIEINNSEFQVIEYPLLEIIMRYNDNGYETRYLALNEATMKTENGSTLVVDVNLRGKHFERFRGDGLCVSTPSGSTAYNKALGGALIHPSLEAMQITEIASINNRVFRTVGSPLVLPKHHTCLISPVNHDTIRMTIDHVSIKHKNVNSIQYRVANEKVRFARFRPFPFWKR | not soluble
MGHHHHHHSHMAASTASQRPLKGILKDNTSTTSSMVASAEHPRGSVHEQLSKKSQKWDEMNILATYRPADKDYGLMKIDEPSTPYHSTMGDDEDACSDTETTEAMATDSLAKNLAAAEGLEPKYQVQEQESSGEEDSDLSPEEREKKRQFEMRRTLHYNEGLNIKLARQLISKDLHDDDKVEEMLETAHGESMNTEESNQGSTASDQQQNKSRSS | not soluble
MGHHHHHHSHMAKLLSDLSVDSARCKPGNNLTKSLLNIHDKQLQHDPAPAHTSIMSYLNKLETNYSFTHSEPLSTIKNEETIEPDKTYENVLSSRGPQNSNTRGMEEASAPGIISALSKQDSDEGSETMALIEDEHNLDNTIYIPFARSTPEKKSPLSKRLSPQPQIRAATTQLVSNSGLAVSGEENKLCTPVICSSSTKEAEDAPEKLSRASDMKDTQLLKKIKEAIGKIPAATKEPEEQTACHGPSGCLSNSLQVKGNTVCDGSVFTSDLMSDWSISSFSTFTSRDEQDFRNGLAALDANIARLQKSLRTGLLEK | not soluble
MGHHHHHHSHMALLVRVLRNQTSISQWVPVCSRLIPVSPTQGQGDRALSRTSQWPQMSQSQACGGSEQIPGIDIQLNRKYHTTRKLSTTKDSPQPVEEKVGAFTKIIEAMGFTGPLKYSKWKIKIAALRMYTSCVEKTDFEEFLLRCQMPDTFNSWFLITLLHVWMCLVRMKQEGRSGKYMCRIIVHFMWEDVQQRGRVMGVNPYILKKNMILMTNHFYAAILGYDEGILSDDHGLAAALWRTFFNRKCEDPRHLELLVEYVRKQIQYLDSMNGEDLLLTGEVSWRPLVEKNPQSILKPHSPTYNDEGL | not soluble
MGHHHHHHSHMARKLKGKIGSKGLKGALLRHKAKVKLVRNIESKQKHELRKKNSSANNKTVKRNQEFQKLNQGKVMPFEKDETLMLCGEGDFSFARSIVEQNYIESDNLIITSYDNSVNELKLKYPHTFEENYQYLKDLNIPIFFQIDVTKLVKSFKISKNNTWFKIINRLSDHRWGNKPLQNIVFNFPHNGKGIKDQERNIREHQDLIFNFFQNSLQLFNLINTKIQNDTLRYTQGYDLNEDTPQAKKLTAEGYGNIILSLFDGEPYDSWQIKLLAKKNGLTLSRSSKFQWENFP | soluble
MGHHHHHHSHMASKKPDKTYEEMVKEVERLKLENKTLKQKVKSSGAVSSDDSILTAAKRESIIVSSSRALGAVAMRKIEAKVRSRAAKAVTEQELTSLLQSLTLRVDVSMEETTVGASGGIGPSSQTETKKRRPRSKSRHRHDHE | not soluble
MGHHHHHHSHMEAEESEKAATEQEPLEGTEQTLDAEEEQEESEEAACGSKKRVVPGIVYLGHIPPRFRPLHVRNLLSAYGEVGRVFFQAEDRFVRRKKKAAAAAGGKKRSYTKDYTEGWVEFRDKRIAKRVAASLHNTPMGARRRSPFRYDLWNLKYLHRFTWSHLSEHLAFERQVRRQRLRAEVAQAKRETDFYLQSVERGQRFLAADGDPARPDGSWTFAQRPTEQELRARKAARPGGRERARLATAQDKARSNKGLLARIFGAPPPSESMEGPSLVRDS | not soluble
MGHHHHHHSHMECETDEQKQGSDENMSECETSSVCSSSDTGLFTNDEGRQGDDEQSDWFYEGECVPGFTVPNLLPKWAPDHCSEVERMDSGLDKFSDSTFLLPSRPAQRGYHTRLNRLPGAAARCLRKGRRRLVGKETSINTLGTERISHIISDPRQKDFWLPSAGKRERNQFNPLSPLYSLDVLADASHRRCSPAHCSARQANVHWGPPCSRVIKRKRKPVATASLSSPSAVHMDAVEPTTPASQAPKSPSSEWLVRTSAAEKATDATTATFFKMPQEKSPGYS | not soluble
MGHHHHHHSHMEKSEPVDQRRHTAGKAIVDSRSAQPKETSEERKARLSEWKAGKGRVLKRPPNSVVTQHEPAGQNEKPVGSFWTTMAEEDEQRLFTEKVNNTFSECLNLINEGCPKEDILVTLNDLIKNIPDAKKLVKYWICLALIEPITSPIENIIAIYEKAILAGAQPIEEMRHTIVDILTMKSQEKANLGENMEKSCASKEEVQEVSIEDTGVDVDPEKLEMESKLHRNLLFQDCEKEQDNKTKDPTHDVKTPNTETRTSCLIKYNVSTTPYLQSVKKKVQFDGTNSAFKELKFLTPVRRSRRLQEKTSKLPDMLRDHYPCVSSLEQLTELGRETDAFVCRPNAALCRVYYEADTT | not soluble
MGHHHHHHSHMENKMESIEQQVEVLLEQEPQLLPAAMAERLGVTEFDVVAALPQEMVAISPGEQAQTILESLVGFGPVTTIVHSFGSIFEVKAPFPKGKVARGYYNLMGREGELHGHLKLDNVKNIALVSKPFMGRESHYFGFFSECGSNIFKVYLGRDEKRELIAEQVTAFRAMQAELNQ | soluble
